Test results reported in patent publication US20210171652A1 (University of Pennsylvania, published 2021).

T1: Band 3 / glycophorin A (Wright b, Wrb epitope) on human red blood cells (human, UniProt P02724 20-150)
T1 construct: whole, on cells; also called Band3/GPA; AE1
T1 sequence 1: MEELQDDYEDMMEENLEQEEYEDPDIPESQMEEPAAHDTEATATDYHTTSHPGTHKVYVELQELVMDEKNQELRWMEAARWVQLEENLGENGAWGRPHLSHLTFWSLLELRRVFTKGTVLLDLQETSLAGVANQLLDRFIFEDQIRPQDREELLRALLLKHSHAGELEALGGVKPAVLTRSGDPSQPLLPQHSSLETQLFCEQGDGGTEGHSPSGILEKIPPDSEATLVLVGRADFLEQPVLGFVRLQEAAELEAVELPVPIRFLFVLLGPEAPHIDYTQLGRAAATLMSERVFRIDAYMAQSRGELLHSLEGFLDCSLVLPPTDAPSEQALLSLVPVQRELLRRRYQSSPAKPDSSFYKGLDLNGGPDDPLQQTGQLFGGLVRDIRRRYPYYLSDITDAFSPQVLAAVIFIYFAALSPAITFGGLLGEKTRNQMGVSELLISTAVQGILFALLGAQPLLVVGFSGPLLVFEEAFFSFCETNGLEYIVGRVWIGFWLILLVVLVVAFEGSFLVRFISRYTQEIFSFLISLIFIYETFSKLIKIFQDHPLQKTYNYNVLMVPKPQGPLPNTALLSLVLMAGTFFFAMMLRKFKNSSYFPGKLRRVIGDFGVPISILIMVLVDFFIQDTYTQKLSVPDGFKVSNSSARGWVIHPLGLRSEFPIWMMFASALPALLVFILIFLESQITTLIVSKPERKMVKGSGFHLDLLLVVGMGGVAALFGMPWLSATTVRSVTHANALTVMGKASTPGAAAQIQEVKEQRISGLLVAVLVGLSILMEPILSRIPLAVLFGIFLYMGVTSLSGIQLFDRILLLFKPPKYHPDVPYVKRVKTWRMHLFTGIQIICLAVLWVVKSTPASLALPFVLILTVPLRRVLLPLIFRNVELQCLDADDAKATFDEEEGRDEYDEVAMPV
T1 sequence 2: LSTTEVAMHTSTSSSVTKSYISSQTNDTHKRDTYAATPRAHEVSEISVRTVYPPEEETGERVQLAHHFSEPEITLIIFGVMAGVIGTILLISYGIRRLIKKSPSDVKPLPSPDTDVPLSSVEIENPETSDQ

T2: human RhCE protein (RHCE; Rh17/Hr0 epitope) on human red blood cells (human, UniProt P18577 2-417)
T2 construct: Target on intact human RBCs of donors
T2 chain: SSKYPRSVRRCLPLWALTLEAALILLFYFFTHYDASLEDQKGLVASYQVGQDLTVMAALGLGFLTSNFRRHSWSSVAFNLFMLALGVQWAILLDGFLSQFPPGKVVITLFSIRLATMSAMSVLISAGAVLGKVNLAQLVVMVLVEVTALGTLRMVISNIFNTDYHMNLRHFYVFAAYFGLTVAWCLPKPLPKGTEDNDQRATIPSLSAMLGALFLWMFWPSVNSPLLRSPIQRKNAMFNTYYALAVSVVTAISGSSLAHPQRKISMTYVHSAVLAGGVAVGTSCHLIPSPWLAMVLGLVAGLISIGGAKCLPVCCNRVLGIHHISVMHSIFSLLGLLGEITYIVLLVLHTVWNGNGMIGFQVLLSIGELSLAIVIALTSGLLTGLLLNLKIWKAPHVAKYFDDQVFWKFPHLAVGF


Tests used:
[1] = biological target: T1, Band 3 / glycophorin A (Wright b, Wrb …); experiment: Fab/phage binding assays on human RBCs incl. rare RBC types lacking conserved antigens
Protocol: (§1) An IgG Fab/phage display library was prepared from the peripheral blood lymphocytes of a hyperimmunized macaque using homologous human V-region oligonucleotides (Siegel D L, R. M., Lee H, Blancher A., Production of large repertories of macaque mAbs to human RBCs using phage display. Transfusion, 1999. 39(S10): p. 92S, which is incorporated herein by reference). Fab/phage specific for human RBCs were isolated by panning on intact human RBCs. Monoclonal Fab/phage were grown to produce antibodies for immunoassays and their corresponding DNA was extracted for sequencing. To identify target epitopes, antibodies were screened against RBCs of known serologic phenotypes, including rare cells lacking highly conserved antigens, using standard immunohematologic techniques (Roback, J. D., Technical Manual. 2014: American Association of Blood Banks (AABB), which is incorporated herein by reference.)
(§2) Using antibody phage display, we identified non-human-primate Fab antibody fragments to antigenic determinants on human RBCs. By panning phage libraries on human RBCs, we produced a Fab/phage preparation with >10⁷ RBC-specific clones capable of agglutinating human RBCs. By performing binding assays against rare RBC types lacking highly conserved antigens and epitopes, we identified the target antigens of >30 of these clones. At least 34 clones bound the Wright b (Wrb) epitope formed by a Band 3/GPA interaction, present on the RBCs of essentially 100% of the human population. The Wrb epitope, determined by the protein sequence of Band 3, is a site of association between Band 3 with GPA, and GPA expression is simultaneously required for its presence on the membrane (Huang C H, Reid M E, Xie S S, Blumenfeld 00. Human red blood cell Wright antigens: a genetic and evolutionary perspective on glycophorin A-band 3 interaction. Blood. 1996; 87(9):3942-3947). At least 3 other clones bound to a highly-conserved epitope Rh17(Hr0) on human RhCE protein, also present on essentially 100% of the human population. Both these targets are specific for erythroid lineage (Rojewski M T, Schrezenmeier H, Flegel W A. Tissue distribution of blood group membrane proteins beyond red cells: evidence from cDNA libraries. Transfus Apher Sci.

[2] = biological target: T2, human RhCE protein (RHCE; Rh17/Hr0 …); experiment: as above
Protocol: as §1, §2

[3] = biological target: T2, human RhCE protein (RHCE; Rh17/Hr0 …); experiment: dissociation of 125I-labelled protein from saturated human RBCs
Protocol: (§3) Recombinant proteins were radiolabeled with Na¹²⁵I (Perkin Elmer, Exton, Pa.) using pre-formulated iodination reagent (Pierce Iodination Reagent, Thermo Fisher Scientific, Carlsbad, Calif.) per the manufacturer's protocol. Radiochemical purity was verified by instant thin layer chromatography on silica and was typically >95%. Radiolabeled proteins were added to human RBCs at 0.02% hematocrit in PBS with 2% human AB serum. Binding was allowed to reach equilibrium over 4 hours at 37 degrees C. After binding, cell suspensions were rapidly washed at least four times with cold PBS. The resulting cell pellet was counted using a Perkin Elmer Wizard2 gamma counting system. Dissociation of the fusion proteins was assessed using RBCs saturated with radiolabeled proteins, washing unbound ligands, and placing in dilute suspensions prior to measurement of bound ligand at specified time points. Similar binding experiments were performed with fluorescently-labeled recombinant proteins and cells were analyzed by flow cytometry (Accuri C6, BD Biosciences, San Jose, Calif.). Fluorescently labeled proteins were produced by reaction with amine-reactive derivatives of fluorescent dyes AlexaFlour488 and AlexaFlour647 (typically 10- to 20-fold excess at pH 8) and purified using 10,000 MWCO centrifugal filter devices (EMD Milipore, Billerica, Mass.).

[4] = biological target: T2, human RhCE protein (RHCE; Rh17/Hr0 …); experiment: direct binding of 125I-labelled protein to human RBCs, 4 h at 37 C
Protocol: as §3

Row | Binder | binding result [1] | binding result [2] | other results
1 | KP3-09 Fab/phage clone (anti-Band 3, Wrb) (Fab, V domains shown) VH: EVQLLESGPGLVKPSETLSLTCAVSSLSLSSGFAWSWIRQPPGEGLEWIGSIGGSRDNVNYNPSLKSRVTISKDTSKNQFSLRLRSVTAADTAVYYCVTIHGYRNWYLDHWGQGVLVTVST VL: AAELTQSPAILSLSPGETATLSCRASQSIGTSLAWYQQKPGQAPKLLVHSAYYRATDIPERFSGSGSRTDFTLTISSLEPEDVGVYHCQQYNDLLPLTFGGGTKVEIK | binds | – | –
2 | KP3-11 Fab/phage clone (anti-RHCE, Rh17) (Fab, V domains shown) VH: EVQLLESGPGLVKPSETLSLTCGVSGASISNYWWSWIRQSPGKGLEWIGEIDGSTYSTHYNPSLKGRVTISKDASKNQLSLRLTSVTAADTAVYYCAREGQDPLAPTLATSGSGLDSWGRGLVVSVSS VL: ELQMTQSPSSLSASLGDRVTITCRASENVNNYLHWYQQKPGKAPKLLIYAASTLQSGVPSRFSGSGSGTDFTLTISSLQPEDVATYYCQHSYGTPLTFGGGTKVEIK | – | binds | –
3 | KP3-14 Fab/phage clone (anti-RHCE, Rh17) (Fab, V domains shown) VH: EVQLLESGPGLGKPSETLSLTCGVSGASISNYWWSWIRQSPGKGLEWIGEIDGSTYSTHYNPSLKGRVTISKDASKNQLSLRLTSVTAADTAVYYCAREGQDPLAPTLATSGSGLDSWGRGLVVTVSS VL: ELQMTQSPSALSASVGDRVTISCRASQDIYSNLAWYQQKPGKAPKLLIYGASRLQSGIPSRFSASGAGTEFTLTISGLQPEDSAVYYCQEVHRNPFTFGPGTKLDIK | – | binds | –
4 | KP3-07 Fab/phage clone (anti-Band 3, Wrb) (Fab, V domains shown) VH: EVQLLESGPGLVKPSETLSLTCTVSGSSLSSAYGWNWIRQPPGKGLEWIGSIGGSRDNTNYNPSLKRRVTISKDTSKNQFSLKLKSVTAADTAVYYCAQRGAYGYSYFDYWGQGVLVTVSS VL: ELVMTQSPATLSLSPGETATLSCRASQSIGSNLAWYQQKPGQAPKLLVHSANIRATGIPDRFIGSGSRTDFTLTISSLEPEDVGVYHCQQYNDFLPLTFGGGTKVEIK | binds | – | –
5 | KP3-20 Fab/phage clone (anti-Band 3, Wrb) (Fab, V domains shown) VH: EVQLLESGPGLVKPSETLSLTCAVSGYSISSGFAWNWIRQTPGKGLEWIGYIGGSRDNTNYNPSLKSRVTISKDTSKNQFSLKLTSMTAADTAMYYCARRGAYGNSYFDFWGQGVPVTVSS VL: AAELTQSPATLSLSPGETATLSCRASQSVGSNVAWYQQKPGQAPKLLVHSAYYRATGIPDRFSGSGSRTDFTLTISSLEPEDVGVYHCQQYNDLLPLTFGGGTKVEIK | binds | – | –
6 | KP3-19 Fab/phage clone (anti-Band 3, Wrb) (Fab, V domains shown) VH: EVQLLESGPGLVKPSETLSLTCAVSGGSLSGGYDWYWIRQSPRKGLEYIGYIYDSRGTTNYNPSLKNRVTISIDTSKNHFSLNLKSVTAADTAVYYCARRVGYGATYFDLWGQGVLVTVSS VL: ELVMTQSPATLSLSPGETATLSCRASQSVGSNLAWYQQKPGQAPKLLVHSANFRATGISDRFSGSGSRTDFTLTISSLEPEDVGVYHCQQYNDLLPLTFGGGTKVEIK | binds | – | –
7 | aRh17 scFv (anti-RhCE), clone KP3-17 (scFv, radio-iodinated (125I) or amine-labelled with AlexaFluor 488/647 in the binding assays; sites not stated, scFv produced as H2N-VH-(GGGGS)3-VL-FLAGx3-COOH in E. coli periplasm (pBAD/gIII); Macaque-derived; also called anti-Rh17 scFv; aRHCE scFv; not shown: C-terminal FLAGx3 tag) scFv: EVQLLESGPGLLKPSETLSLTCAVSGAPISNYWWSWIRQSPGKGLEWIGEIDGSIYTTYYNPSLKSRVAISKDTSKNRLSLKLTSVTAADTAVYYCAREGQNPLVPTYGSTGFGLDFWGHGLAVTVSSGGGGSGGGGSGGGGSAAELTQSPSSLSASVGDRVTITCQASQGISSWLAWYQQKPGKAPKLLIYKASSLQSGVPSRFSGSGSGTDFTLTISSLQSEDFATYYCQQYSSSPRTFGQGTKVEIK | – | – | koff [3]: 2e-05 s⁻¹; Kd [4]: 41.4 nM
8 | KP3-17 Fab/phage clone (anti-RHCE, Rh17) (Fab, V domains shown) VH: EVQLLESGPGLLKPSETLSLTCAVSGAPISNYWWSWIRQSPGKGLEWIGEIDGSIYTTYYNPSLKSRVAISKDTSKNRLSLKLTSVTAADTAVYYCAREGQNPLVPTYGSTGFGLDFWGHGLAVTVSS VL: AAELTQSPSSLSASVGDRVTITCQASQGISSWLAWYQQKPGKAPKLLIYKASSLQSGVPSRFSGSGSGTDFTLTISSLQSEDFATYYCQQYSSSPRTFGQGTKVEIK | – | binds | –
9 | KP3-12 Fab/phage clone (anti-Band 3, Wrb) (Fab, V domains shown) VH: EVQLLESGPGLVKPSETLSLTCAVSGNSISSAYGWHWIRQVPGKGLEWIGSIGGSRGTTNYNPSLKSRGTISEDTSKNQFSLRLRSVSAADTAVYFCARDSGYSFRYFDFWGRGVLVTVSS VL: AAELTQSPATLSLAPGETATLSCRASQSIGTNLAWYHQKPGQPPKLLVHSAYVRATGIPNRFSGSGSRTDFTLTINSLQPEDVGVYHCQQYNDLLPLTFGGGTKIDIK | binds | – | –
